# Source: PMC6032367, “A peptide‐display protein scaffold to facilitate single molecule force studies of aggregation‐prone peptides” (Protein Science : A Publication of the Protein Society, 2018)
# T1: αSyn71–82 synthetic peptide
# T1 chain: VTGVTAVAQKTV
# T2: αSyn71–82 synthetic peptide
# T2 peptide: Ac-VTGVTAVAQKTV-NH2
# B1: γSyn71–82 synthetic peptide (peptide)
# peptide: Ac-VSSVNTVATKTV-NH2
# notes: γ‐synuclein, central NAC region, residues 71–82; also called central NAC region of γSyn; source: bought: Genscript, synthetic peptide, >99% purity
# How the values were obtained:
# [1] = target: pL γSyn71–82 (protein L W47Y I60F N14C scaffold with γSyn residues 71–82 inserted in the extended β3‐β4 loop); experiment: native MS; ESI–MS of 100 μM pL constructs in 100 mM ammonium acetate pH 6.8, equal volumes mixed for heterodimers; after quiescent incubation for 4 h at 25°C
# [2] = target: pL αSyn71–82 (protein L W47Y I60F N14C scaffold with αSyn residues 71–82 inserted in the extended β3‐β4 loop); experiment: single molecule force spectroscopy (AFM); pL constructs coupled through Cys14 to maleimide‐PEG on both the AFM tip and the surface; retraction 1 μm s^-1 (1000 nm s^-1), approach 2 µm s^-1; 20 mM HEPES pH 7.5, room temperature; triplicate
# [3] = target: pL αSyn71–82 (protein L W47Y I60F N14C scaffold with αSyn residues 71–82 inserted in the extended β3‐β4 loop); experiment: native MS; ESI–MS of 100 μM pL constructs in 100 mM ammonium acetate pH 6.8, equal volumes mixed for heterodimers; after quiescent incubation for 4 h at 25°C
# [4] = target: pL αSyn71–82 (protein L W47Y I60F N14C scaffold with αSyn residues 71–82 inserted in the extended β3‐β4 loop); experiment: dynamic force spectroscopy (AFM); pL αSyn71–82 on AFM tip and surface; retraction speeds 200 to 5000 nm s^-1; Bell‐Evans fit, dissociation rate constant in the absence of force; 20 mM HEPES pH 7.5, room temperature
# [5] = target: T1, αSyn71–82 synthetic peptide; experiment: native MS; ESI–IMS–MS of synthetic peptides alone and in a 1:1 mixture; 100 μM final in 100 mM ammonium acetate pH 6.8; details: remark: other sources report otherwise
# [6] = target: the molecule itself; experiment: as above
# [7] = target: T2, αSyn71–82 synthetic peptide; experiment: cell-based or functional assay
molecule,measurement,setting,value
pL γSyn71–82 (protein L W47Y I60F N14C scaffold with γSyn residues 71–82 inserted in the extended β3‐β4 loop),stoichiometry N,[1],2
same,hit rate (frequency of detection),[2],3.2%
same,rupture force (F R),[2],53 pN
pL αSyn71–82 (protein L W47Y I60F N14C scaffold with αSyn residues 71–82 inserted in the extended β3‐β4 loop),stoichiometry N,[3],< 3
same,hit rate,[2],4%
same,rupture force (F R),[2],57 pN
same,koff,[4],0.18 s⁻¹
same,lifetime,[4],6 s
Ac-VTGVTAVAQKTV-NH2 [αSyn71–82 synthetic peptide],stoichiometry N,[5],< 14
B1,stoichiometry N,[6],≤ 14
same,increase in lag‐time of ThT fluorescence of the 1:1 peptide mixture compared with αSyn71–82 alone,[7],2.5 fold
same,increase in lag‐time of ThT fluorescence of the 1:1 peptide mixture compared with γSyn71–82 alone,[7],5.7 fold
